Measurements: US20260242735A1

Key:
[1] = molecular target: human CD33 L134R (human) (UniProt P20138); experiment: flow cytometry, transfected cells, IgG
[2] = molecular target: human CD33 K52F (human) (UniProt P20138); experiment: flow cytometry, transfected cells, IgG
[3] = molecular target: human CD33 Y129A (human) (UniProt P20138); experiment: alanine scan, flow cytometry, HEK293-T
[4] = molecular target: human CD33 L134A (human) (UniProt P20138); experiment: alanine scan, flow cytometry, HEK293-T
[5] = molecular target: human CD33 Q26A (human) (UniProt P20138); experiment: flow cytometry, alanine scan
[6] = molecular target: human CD33 Q24A (human) (UniProt P20138); experiment: flow cytometry, alanine scan
[7] = molecular target: human CD33 V25A (human) (UniProt P20138); experiment: flow cytometry, alanine scan
[8] = molecular target: human CD33 F44A (human) (UniProt P20138); experiment: flow cytometry, alanine scan
[9] = molecular target: human CD33 C212A (human) (UniProt P20138); experiment: alanine scan, flow cytometry
[10] = molecular target: human CD33 variant Y129S (human) (UniProt P20138); experiment: flow cytometry, IgG on cells expressing the mutant
[11] = molecular target: human CD33 F44A (human) (UniProt P20138); experiment: alanine scan, flow cytometry
[12] = molecular target: human CD33 Y129A (human) (UniProt P20138); experiment: flow cytometry on HEK293-T, alanine scan
[13] = molecular target: human CD33 M120A (human) (UniProt P20138); experiment: flow cytometry on HEK293-T, alanine scan
[14] = molecular target: human CD33 C101A (human) (UniProt P20138); experiment: flow cytometry on HEK293-T, alanine scan
[15] = molecular target: human CD33 extracellular region F21L (human) (UniProt P20138); experiment: BLI Octet, IgG captured on AHC, CD33 analyte
[16] = molecular target: human CD33 C212A (human) (UniProt P20138); experiment: alanine scan, flow cytometry, HEK293-T
[17] = molecular target: human CD33 C41A (human) (UniProt P20138); experiment: alanine scan, flow cytometry
[18] = molecular target: human CD33 variant Y49S (human) (UniProt P20138); experiment: flow cytometry, IgG on cells expressing the mutant
[19] = molecular target: human CD33 V231A (human) (UniProt P20138); experiment: alanine scan, flow cytometry, HEK293-T
[20] = molecular target: human CD33 V138A (human) (UniProt P20138); experiment: flow cytometry on HEK293-T, alanine scan
Chain of human CD33 V138A (human) (P20138 18-364 V138A limits assumed): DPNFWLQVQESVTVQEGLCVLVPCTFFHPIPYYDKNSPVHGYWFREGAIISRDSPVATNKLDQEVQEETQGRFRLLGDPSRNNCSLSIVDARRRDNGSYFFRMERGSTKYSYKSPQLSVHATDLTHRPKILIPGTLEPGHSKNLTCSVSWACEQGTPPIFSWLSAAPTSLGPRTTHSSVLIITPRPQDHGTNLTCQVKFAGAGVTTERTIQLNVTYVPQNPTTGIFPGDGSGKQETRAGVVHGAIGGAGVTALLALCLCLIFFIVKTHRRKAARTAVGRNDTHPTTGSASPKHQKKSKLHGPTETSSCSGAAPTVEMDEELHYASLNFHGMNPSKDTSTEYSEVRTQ

Chain of human CD33 C212A (human) (P20138 18-364 C212A limits assumed): as the sequence (P20138 18-364 V138A limits assumed) above, with A121V, C195A counted along it
Chain of human CD33 F44A (human) (P20138 18-364 F44A limits assumed): as the sequence (P20138 18-364 V138A limits assumed) above, with F27A, A121V counted along it
Chain of human CD33 Y129A (human) (P20138 18-364 Y129A limits assumed): as the sequence (P20138 18-364 V138A limits assumed) above, with Y112A, A121V counted along it
Chain of human CD33 L134R (human) (P20138 18-364 L134R limits assumed): as the sequence (P20138 18-364 V138A limits assumed) above, with L117R, A121V counted along it
Chain of human CD33 K52F (human) (P20138 18-364 K52F limits assumed): as the sequence (P20138 18-364 V138A limits assumed) above, with K35F, A121V counted along it
Chain of human CD33 C41A (human) (P20138 18-364 C41A limits assumed): as the sequence (P20138 18-364 V138A limits assumed) above, with C24A, A121V counted along it
Chain of human CD33 extracellular region F21L (human) (P20138 other isoform, or with tags, fused parts or gaps F21L F21L): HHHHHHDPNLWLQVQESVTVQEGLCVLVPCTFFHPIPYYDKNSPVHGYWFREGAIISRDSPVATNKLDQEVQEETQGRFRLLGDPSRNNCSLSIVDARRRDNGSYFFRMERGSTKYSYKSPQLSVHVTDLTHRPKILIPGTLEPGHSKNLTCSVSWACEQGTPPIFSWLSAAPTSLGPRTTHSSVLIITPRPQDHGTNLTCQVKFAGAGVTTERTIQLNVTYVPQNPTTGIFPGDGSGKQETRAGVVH
Chain of human CD33 V25A (human) (P20138 18-364 V25A limits assumed): as the sequence (P20138 18-364 V138A limits assumed) above, with V8A, A121V counted along it
Chain of human CD33 V231A (human) (P20138 18-364 V231A limits assumed): as the sequence (P20138 18-364 V138A limits assumed) above, with A121V, V214A counted along it
Chain of human CD33 variant Y129S (human) (P20138 18-364 Y129S limits assumed): as the sequence (P20138 18-364 V138A limits assumed) above, with Y112S, A121V counted along it
Chain of human CD33 M120A (human) (P20138 18-364 M120A limits assumed): as the sequence (P20138 18-364 V138A limits assumed) above, with M103A, A121V counted along it
Chain of human CD33 Q24A (human) (P20138 18-364 Q24A limits assumed): as the sequence (P20138 18-364 V138A limits assumed) above, with Q7A, A121V counted along it
Chain of human CD33 L134A (human) (P20138 18-364 L134A limits assumed): as the sequence (P20138 18-364 V138A limits assumed) above, with L117A, A121V counted along it
Chain of human CD33 C101A (human) (P20138 18-364 C101A limits assumed): as the sequence (P20138 18-364 V138A limits assumed) above, with C84A, A121V counted along it
Chain of human CD33 variant Y49S (human) (P20138 18-364 Y49S limits assumed): as the sequence (P20138 18-364 V138A limits assumed) above, with Y32S, A121V counted along it
Chain of human CD33 Q26A (human) (P20138 18-364 Q26A limits assumed): as the sequence (P20138 18-364 V138A limits assumed) above, with Q9A, A121V counted along it

B1: Refmab #6 (antibody, human IgG1, V domains shown)
VH: QVQLQQPGAEVVKPGASVKMSCKASGYTFTSYYIHWIKQTPGQGLEWVGVIYPGNDDISYNQKFQGKATLTADKSSTTAYMQLSSLTSEDSAVYYCAREVRLRYFDVWGQGTTVTVSS
VL: EIVLTQSPGSLAVSPGERVTMSCKSSQSVFFSSSQKNYLAWYQQIPGQSPRLLIYWASTRESGVPDRFTGSGSGTDFTLTISSVQPEDLAIYYCHQYLSSRTFGQGTKLEIK
Mean % WT Binding [1]: 1% | Mean % WT Binding [2]: 2.5% | Mean % WT Binding [3]: 76.7 % WT binding | Mean % WT Binding [4]: 19.5 % WT binding | Mean % WT Binding [5]: 76.1 % of WT | Mean % WT Binding [6]: 18.1 % of WT | Mean % WT Binding [7]: 16.7 % of WT | Mean % WT Binding [8]: 14 % of WT | Mean % WT Binding [9]: 16.2 % WT binding

B2: Refmab #3 (antibody, human IgG1, V domains shown)
VH: QVQLVQSGAEVKKPGSSVKVSCKASGYTFTDYNMHWVRQAPGQGLEWIGYIYPYNGGTGYNQKFKSKATITADESTNTAYMELSSLRSEDTAVYYCARGRPAMDYWGQGTLVTVSS
VL: DIQMTQSPSSLSASVGDRVTITCRASESVDNYGISFMNWFQQKPGKAPKLLIYAASNQGSGVPSRFSGSGSGTDFTLTISSLQPDDFATYYCQQSKEVPWTFGQGTKVEIK
Mean % WT Binding [10]: 7.6 % of WT | Mean % WT Binding [11]: 18.9 % WT | Mean % WT Binding [12]: 15.6 % WT binding | Mean % WT Binding [13]: 15.7 % WT binding | Mean % WT Binding [14]: 13.6 % WT binding

B3: Refmab #1 (antibody, human IgG1, V domains shown)
VH: EVQLVQSGAEVKKPGSSVKVSCKASGYTITDSNIHWVRQAPGQSLEWIGYIYPYNGGTDYNQKFKNRATLTVDNPTNTAYMELSSLRSEDTAFYYCVNGNPWLAYWGQGTLVTVSS
VL: DIQLTQSPSTLSASVGDRVTITCRASESLDNYGIRFLTWFQQKPGKAPKLLMYAASNQGSGVPSRFSGSGSGTEFTLTISSLQPDDFATYYCQQTKEVPWSFGQGTKVEVK
% WT binding [15]: 1.52% | Mean % WT Binding [16]: 17.2% | Mean % WT Binding [17]: 14 % WT

B4: Refmab #4 (antibody, human IgG1, V domains shown)
VH: QVQLVQSGAEVKKPGESVKVSCKASGYTFTNYGMNWVKQAPGQGLEWMGWINTYTGEPTYADKFQGRVTMTTDTSTSTAYMEIRNLGGDDTAVYYCARWSWSDGYYVYFDYWGQGTSVTVSS
VL: DIVMTQSPDSLTVSLGERTTINCKSSQSVLDSSTNKNSLAWYQQKPGQPPKLLLSWASTRESGIPDRFSGSGSGTDFTLTIDSPQPEDSATYYCQQSAHFPITFGQGTRLEIK
Mean % WT Binding [18]: 9.8 % of WT | Mean % WT Binding [19]: 79.3% | Mean % WT Binding [20]: 54.1 % WT binding

B5: Refmab #5 (antibody, human IgG1, V domains shown)
VH: QVQLVQSGAEVKKPGASVKVSCKASGYTFTNYDINWVRQAPGQGLEWIGWIYPGDGSTKYNEKFKAKATLTADTSTSTAYMELRSLRSDDTAVYYCASGYEDAMDYWGQGTTVTVSS
VL: DIQMTQSPSSLSASVGDRVTINCKASQDINSYLSWFQQKPGKAPKTLIYRANRLVDGVPSRFSGSGSGQDYTLTISSLQPEDFATYYCLQYDEFPLTFGGGTKVEIK
Mean % WT Binding [1]: 5% | Mean % WT Binding [2]: 2.5%
